Measurements as given in patent US20250195685A1 (CAPSTAN THERAPEUTICS, published 2025).
Positions count from the first letter of the chain named. In names and notes the source's numbering stands. One block for each binder: values may come before it.

Experiments:
[1] = molecular target: T1, human CD8αα homodimer, recombinant protein (Acro Biosystems) (human, UniProt P01732 22-182); assay: BLI kinetics, F(ab) on biotinylated CD8α (SA-XT sensor), 1:1 fit, 37 °C [CONT'ED]
T1 construct: also called CD8αα antigen; biotinylated CD8α recombinant protein (CDA-H82E3)
T1 sequence (P01732 22-182 limits assumed): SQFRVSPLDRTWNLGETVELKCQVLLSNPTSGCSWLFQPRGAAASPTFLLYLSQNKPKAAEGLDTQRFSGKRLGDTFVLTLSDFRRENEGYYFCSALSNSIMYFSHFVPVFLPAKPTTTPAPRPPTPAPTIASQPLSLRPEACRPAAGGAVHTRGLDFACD
Experimental: (§1) Biolayer interferometry kinetic assays were performed using a GatorBio Gator Plus BLI system. Kinetic buffer containing PBS plus 0.1% Tween 20 and 0.2% BSA was used for calculating the baseline. To measure the binding kinetics of anti-CD8α antibody fragment (Fab), streptavidin-immobilized SA-XT sensors (#160029, Gator Bio) were prehydrated in the kinetic buffer and loaded with […] biotinylated CD8α recombinant protein (CDA-H82E3, Acro Biosystems) at a spin speed of 400 rpm to a threshold response of 10 nm. The sensors were then incubated in the kinetic buffer for 300 s to acquire a baseline measurement prior to each association. […] The antigen-loaded sensors were incubated in the diluted solutions to capture Fab fragments for 300 s to record the association phase. Sensors were finally incubated in the kinetic buffer for 900 s to record the dissociation phase. The spin speed for all steps except the antigen loading step was 1000 rpm. The temperature of the performed assays was either 30° C. or 37° C. during the association and dissociation phases. Sensor data were baseline subtracted, and global curve fitting of the kinetic data from six different analyte concentrations at a 1:1 monovalent binding model was performed using GatorOne software (version v2.10) to determine kinetic rate constants (kₒₙ and koff) and equilibrium dissociation constants (KD) of the analyzed antibodies.

[2] = molecular target: T1, human CD8αα homodimer, recombinant …; assay: BLI kinetics, F(ab) on biotinylated CD8α (SA-XT sensor), 1:1 fit, 30 °C
Experimental: as §1

[3] = molecular target: T1, human CD8αα homodimer, recombinant …; assay: BLI kinetic assay, engineered F(ab') fragment
Experimental: The global fitting was performed with a 1:1 fitting model using GatorOne software as described below.
as §1

[4] = molecular target: T1, human CD8αα homodimer, recombinant …; assay: BLI steady state, whole hIgG1-LALAPA antibody on CD8α-His (Ni-NTA sensor), 30 °C
Experimental: To assess affinity of whole antibodies, steady state analysis was used as the bivalent nature of both whole antibody and CD8α complicates kinetic analysis. 50 nM CD8α-His (that is, CD8α with a C-terminal oligohistidine tag; Acro) was immobilized on Ni-NTA sensor probes. Binding was analyzed with a three-fold antibody dilutions series: 60 nM, 20 nM, 6.67 nM, 2.22 nM, 0.74 nM, and 0.25 nM. The antigen-loaded sensors were incubated in the diluted solutions to capture the whole IgG antibody for 300 s to record the association phase. Sensors were incubated in the kinetic buffer for 900 s to record the dissociation phase. The spin speed was 1000 rpm for all steps except the antigen loading step which was 400 rpm to control density of the antigen. The temperature of the performed assays was at 30° C. during the association and dissociation phases. The sensor data were baseline subtracted and further analyzed in GatorOne software (version 2.10) to determine the equilibrium dissociation constants (KD) of the antibodies by fitting the signals of the steady states to the 1:1 binding model.

[5] = molecular target: T1, human CD8αα homodimer, recombinant …; assay: BLI kinetic rate analysis, Fab fragment (temperature not given)
Experimental: as §1

B1: CBD1032 (Fab, V domains shown)
VH: QVQLVQSGAEVKKPGASVKVSCKASRYTFTDYNLHWVRQAPGQGLEWMGFIYPYNGGTGYAQKFQGRVTMTRDTSTSTVYMELSSLRSEDTAVYYCARDHRYNEGVSFDYWGQGTTVTVSS
VL: DIQMTQSPSSLSASVGDRVTITCRASESVDGFGNSFMNWYQQKPGKAPKLLIYLASNLESGVPSRFSGSGSGTDFTLTISSLQPEDFATYYCQQNNEDPYTFGQGTKLEIK
notes: also called h1017-H1/L1 F(ab)
Kd [1]: 1.59 nM | koff [1]: 5.35e-05 s⁻¹ | kon [1]: 33700 M⁻¹ s⁻¹ | Kd [2]: 1.84 nM | koff [2]: 9.45e-05 s⁻¹ | kon [2]: 51500 M⁻¹ s⁻¹

B2: CBD1033.42 disulfide-engineered F(ab') analog (IgG1, truncated P240) (Fab, V domains shown)
VH: B1 VH with R72V, V79A
VL: DIQLTQSPSSLSASVGDRATITCRASESVDGFGNSFMNWYQQKPGKAPKLLIYLASNLESGVPSRFSGSGSGTDFTLTISSVQPEDFATYYCQQNNEDPYTFGQGTKLEIKR
notes: also called .42 design
Kd [3]: 5.09 nM | koff [3]: 6.41e-05 s⁻¹ | kon [3]: 12600 M⁻¹ s⁻¹

B3: CBD1033.44 disulfide-engineered F(ab') analog (IgG1, truncated T238) (Fab, V domains shown)
VH: B1 VH with R72V, V79A
VL: B2 VL
notes: also called .44 design
Kd [3]: 7.23 nM | koff [3]: 8.88e-05 s⁻¹ | kon [3]: 12300 M⁻¹ s⁻¹

B4: CBD1045 (antibody, human IgG1, kappa, L234A L235A, V domains shown)
VH: B1 VH with M48I, Q65K, M70I, R72A, V79A, T116L
VL: EIVLTQSPGTLSLSPGERATLSCRASESVDGFGNSFMNWYQQKPGQAPRLLIYLASNLESGVPARFSGSGSGTDFTLTISRLEPEDFAVYYCQQNNEDPYTFGQGTKVEIKR
notes: also called h1017-H8/L5 whole antibody hIgG1-LALAPA
Kd [4]: 4.18 nM

B7: CBD1044 (antibody, human IgG1, kappa, L234A L235A, V domains shown)
VH: B1 VH with M48I, M70I, R72A, V79A, T116L
VL: B4 VL with G72R
notes: also called h1017-H7/L6 whole antibody hIgG1-LALAPA
Kd [4]: 8.65 nM

B8: CBD1034 (Fab, V domains shown)
VH: B1 VH with R72V, V79A
VL: B1 VL with M4L, V19A, G72R, L82V
notes: also called h1017-H2/L3 F(ab)
Kd [1]: 1.82 nM | koff [1]: 0.000187 s⁻¹ | kon [1]: 103000 M⁻¹ s⁻¹ | Kd [2]: 9.9 nM | koff [2]: 0.000204 s⁻¹ | kon [2]: 20900 M⁻¹ s⁻¹

Results, then the binder that gave them:

Kd [5]: 0.86 nM | koff [5]: 6.91e-05 s⁻¹ | kon [5]: 80300 M⁻¹ s⁻¹
B5: CBD1382 (Fab, V domains shown)
VH: B1 VH with N55A, R72V, V79A
VL: B1 VL with M4L, V19A, L82V

Kd [5]: 10 nM | koff [5]: 0.000284 s⁻¹ | kon [5]: 28400 M⁻¹ s⁻¹
B6: CBD1443 Fab (VL D30E of CBD1033) (Fab, V domains shown)
VH: B1 VH with R72V, V79A
VL: B1 VL with M4L, V19A, D30E, L82V

Kd [5]: 2.91 nM | koff [5]: 9.97e-05 s⁻¹ | kon [5]: 34300 M⁻¹ s⁻¹
B9: CBD1622 Fab (VL D30S and VH N55Q of CBD1033) (Fab, V domains shown)
VH: B1 VH with N55Q, R72V, V79A
VL: B1 VL with M4L, V19A, D30S, L82V
notes: also called D30S and N55Q

Kd [4]: 5.45 nM
B10: CBD1048 (antibody, human IgG1, kappa, L234A L235A, V domains shown)
VH: B1 VH with M70L, R72V, T74Y, V79A, T116L
VL: B4 VL with G72R
notes: also called h1017-H9/L6 whole antibody hIgG1-LALAPA

Kd [5]: 1.22 nM | koff [5]: 9.59e-05 s⁻¹ | kon [5]: 78600 M⁻¹ s⁻¹
B11: CBD1381 (Fab, V domains shown)
VH: B1 VH with N55Q, R72V, V79A
VL: B1 VL with M4L, V19A, L82V

Kd [4]: 2.72 nM
B12: CBD1047 (antibody, human IgG1, kappa, L234A L235A, V domains shown)
VH: B1 VH with M70L, R72V, T74Y, V79A, T116L
VL: B4 VL
notes: also called h1017-H9/L5 whole antibody hIgG1-LALAPA

Kd [5]: 7.69 nM | koff [5]: 0.000196 s⁻¹ | kon [5]: 25500 M⁻¹ s⁻¹
B13: CBD1444 Fab (VL D30S of CBD1033) (Fab, V domains shown)
VH: B1 VH with R72V, V79A
VL: B1 VL with M4L, V19A, D30S, L82V
